The results in this text go back to patent publication US8969289.

Assay [1] has as its target human β-klotho (human) (UniProt Q86Z14). Put plainly: cell-based or functional assay.
The target in assay [2] is β-klotho of differentiated 3T3-L1 adipocytes (mouse) (UniProt Q99N32). The assay is described as follows: cell-based or functional assay.
Assay [3] addresses Amylin receptor (chimpanzee; human, UniProt O60896 24-148). Put plainly: cell-based or functional assay.
Assay [4] has as its target T1, human serum albumin (human, UniProt P02768 25-609).
T1 construct: mature; Purified or recombinant albumin from suppliers; also called HSA; HuSA
The assay is described as follows: comment in the summary table; Biacore at lowered pH; target not given, HSA by paragraph 278.

For assay [5], the target named is T1, human serum albumin. The assay is described as follows: isothermal titration calorimetry (refers to FIG. 11). The method, then: SABA-FGF21 fusion protein plus buffer was placed in the instrument sample cell at a concentration range of 0.4 to 1.0 mg/mL protein. The matching buffer was placed in the reference cell. Concentrations were determined using extinction coefficients calculated from the protein sequences of the pure proteins. The instrument reaction cell was equilibrated at 37° C. […] The resultant thermogram data was fitted using Origin™ evaluation software package (Microcal Inc.) version 2.0.2 to estimate the stochiometry, enthalpy, and equilibrium disassociation constant (K_D) of the protein-protein binding reaction.

Positions of bridges follow the written chain, without caps; N, C: chain ends. No end group written: not given here.

Amylin receptor, sequence (O60896 24-148): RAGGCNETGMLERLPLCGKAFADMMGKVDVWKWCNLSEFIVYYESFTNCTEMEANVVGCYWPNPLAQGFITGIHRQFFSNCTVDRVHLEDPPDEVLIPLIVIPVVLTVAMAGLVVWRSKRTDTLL
β-klotho of differentiated 3T3-L1 adipocytes (mouse), sequence (Q99N32 whole entry): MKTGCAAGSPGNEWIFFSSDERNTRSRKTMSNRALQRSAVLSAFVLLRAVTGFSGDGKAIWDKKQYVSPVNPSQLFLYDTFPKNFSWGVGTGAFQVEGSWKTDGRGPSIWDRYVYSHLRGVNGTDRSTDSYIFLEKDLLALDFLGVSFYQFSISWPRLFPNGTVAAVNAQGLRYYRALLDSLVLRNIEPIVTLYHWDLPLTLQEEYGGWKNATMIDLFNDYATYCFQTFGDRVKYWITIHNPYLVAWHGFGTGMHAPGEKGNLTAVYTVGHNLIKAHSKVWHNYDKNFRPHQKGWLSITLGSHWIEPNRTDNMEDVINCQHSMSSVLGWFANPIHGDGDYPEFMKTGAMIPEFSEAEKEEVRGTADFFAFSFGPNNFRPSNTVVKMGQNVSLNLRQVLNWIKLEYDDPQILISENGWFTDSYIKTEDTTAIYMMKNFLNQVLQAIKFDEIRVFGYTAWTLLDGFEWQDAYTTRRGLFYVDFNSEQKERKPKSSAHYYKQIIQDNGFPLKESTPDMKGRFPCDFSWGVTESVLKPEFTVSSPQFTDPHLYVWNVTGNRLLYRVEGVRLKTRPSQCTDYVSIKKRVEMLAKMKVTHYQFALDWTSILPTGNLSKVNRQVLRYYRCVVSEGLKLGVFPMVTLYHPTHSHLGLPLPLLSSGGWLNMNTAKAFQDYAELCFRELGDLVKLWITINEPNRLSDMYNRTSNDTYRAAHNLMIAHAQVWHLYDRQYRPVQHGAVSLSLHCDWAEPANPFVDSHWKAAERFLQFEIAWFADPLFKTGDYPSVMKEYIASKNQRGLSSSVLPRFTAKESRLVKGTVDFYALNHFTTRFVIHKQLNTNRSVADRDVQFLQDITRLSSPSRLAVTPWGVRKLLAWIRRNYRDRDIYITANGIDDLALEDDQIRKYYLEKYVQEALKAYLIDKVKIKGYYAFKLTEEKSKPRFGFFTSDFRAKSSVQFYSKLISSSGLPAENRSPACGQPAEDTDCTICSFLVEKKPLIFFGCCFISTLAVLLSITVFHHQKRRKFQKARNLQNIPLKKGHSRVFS

“His-tagged FGF21 (from UniProt Q9NSA1 29-209) (ligand)”: in assay [1], the EC50 (potency), pERK 1/2 in HEK β-Klotho expressing stable cells was 7 nM and the Efficacy (% of His6-tagged FGF21 maximal activity), pERK 1/2 in HEK β-Klotho expressing stable cells came to 100%. Besides, in assay [2], the EC50, pERK 1/2 in 3T3-L1 adipocytes was 4 nM and the Fold Activation, pERK 1/2 in 3T3-L1 adipocytes was 2.1 fold.

B1: Amylin Control Peptide (peptide)
peptide: KCNTATCATQRLANFLVRSSNNLGPVLPPTNVGSNTY-NH2
modifications: disulfide 2-7
For B1, the “Efficacy (% of native peptide ligand maximal activity), cellular cAMP assay” value in assay [3] was 100%.

B2: SABA4.1 (designed binder)
chain: MGVSDVPRDLEMVAATPTSLLISWEDDSYYSRYYRITYGETGGNSPVQEFTVPSDLYTATISGLKPGVDYTITVYAVTYDVTDLIMHEPISINYRTEIDKPSQHHHHHH
notes: Core 4 Adnectin (carries a scaffold mutation) with AdNT1, AdCT1 and His6
On to B2, for which, in assay [4], the “fold decrease in KD at pH < 6.0” value is above 2 fold.

B3: SABA5.1 (designed binder)
chain: MGVSDVPRDLEVVAATPTSLLISWEDDSYYSRYYRITYGETGGNSPVQEFTVPSDLYTATISGLKPGVDYTITVYAVTYDVTDLIMHEPISINYRTEIDKPSQHHHHHH
notes: Scaffold-perfect version of SABA4 with the same BC, DE and FG loops; AdNT1, AdCT1 and His6
Regarding B3, in assay [4], the “fold decrease in KD at pH < 6.0” value is above 2 fold.

B4: SABA1-FGF21v1 (designed binder)
chain: MGVSDVPRDLEVVAATPTSLLISWHSYYEQNSYYRITYGETGGNSPVQEFTVPYSQTTATISGLKPGVDYTITVYAVYGSKYYYPISINYRTEIEKPSQGSGSGSGSGSGSGSPIPDSSPLLQFGGQVRQRYLYTDDAQQTEAHLEIREDGTVGGAADQSPESLLQLKALKPGVIQILGVKTSRFLCQRPDGALYGSLHFDPEACSFRELLLEDGYNVYQSEAHGLPLHLPGNKSPHRDPAPRGPARFLPLPGLPPALPEPPGILAPQPPDVGSSDPLSMVGPSQGRSPSYAS
notes: Single-chain fusion: SABA core 1 with AdNT1 leader and AdCT7 tail, (GS)7 linker, FGF21 core with FNT3 leader and C-terminal S; also called SABA-FGF21v1 fusion; FGF21-SABA fusion
Molecule B4 gave a Kd in assay [5] of around 4 nM.

B5: SABA1.7-(ED)5G-Cys-PEG20-Amylin-CONH2 (designed binder)
chain: MGVSDVPRDLEVVAATPTSLLISWHSYYEQNSYYRITYGETGGNSPVQEFTVPYSQTTATISGLKPGVDYTITVYAVYGSKYYYPISINYRTEIEDEDEDEDEDGC
modifications: Maleimide-PEG20 spacer (X1) between the Cys after (ED)5G and the amylin peptide; disulfide bridge between the two Cys of the amylin part; C-terminal amidation
Take B5: in assay [3], the “Cell based Potency (EC50), cellular cAMP assay” value came to 12.2 nM and the “Efficacy (% of native peptide ligand maximal activity), cellular cAMP assay” value was found to be 119%.
